Assay results published in patent US20260098102A1 (NATIONAL UNIVERSITY CORPORATION KOBE UNIVERSITY, published 2026).

B1: OSE-172 (antibody, human IgG4 S228P, kappa, V domains shown)
VH: EVQLVQSGAEVKKPGESLRISCKASGYSFTSYWVHWVRQMPGKGLEWMGNIDPSDSDTHYSPSFQGHVTLSVDKSISTAYLQLSSLKASDTAMYYCVRGGTGTLAYFAYWGQGTLVTVSS
VL: DVVMTQSPLSLPVTLGQPASISCRSSQSLVHSYGNTYLYWFQQRPGQSPRLLIYRVSNRFSGVPDRFSGSGSGTDFTLKISRVEAEDVGVYYCFQGTHVPYTFGGGTKVEIKR
notes: IgG4Pro heavy chain
B2: cF44 (IgG1) (antibody, V domains shown)
VH: EVQLVESGGGLVQPGRSLKLSCAASGFTFSNYYMAWVRQAPTKGLEWVTYITTGGGSTYFRDSVKGRFTISRDNAESTLYLQMDSLRSEDTATYYCTAANYGGSYFDYWGQGVMVTVSS
VL: DVQMTQSPSNLAASPGESVSINCKASKSISKYLAWYQQKPGKANKLLIYSGSTLQSGTPSRFSGSGSGTDFTLTIRNLEPEDFGLYYCQQHNEYPPTFGAGTKLELK
notes: Human IgG1 constant region; also called cF44 IgG1 type
B3: cF44 (IgG2) (antibody, V domains shown)
VH: EVQLVESGGGLVQPGRSLKLSCAASGFTFSNYYMAWVRQAPTKGLEWVTYITTGGGSTYFRDSVKGRFTISRDNAESTLYLQMDSLRSEDTATYYCTAANYGGSYFDYWGQGVMVTVSS
VL: DVQMTQSPSNLAASPGESVSINCKASKSISKYLAWYQQKPGKANKLLIYSGSTLQSGTPSRFSGSGSGTDFTLTIRNLEPEDFGLYYCQQHNEYPPTFGAGTKLELK
notes: Human IgG2 constant region; also called cF44 IgG2 type
B4: cF44 (IgG4p) (antibody, V domains shown)
VH: EVQLVESGGGLVQPGRSLKLSCAASGFTFSNYYMAWVRQAPTKGLEWVTYITTGGGSTYFRDSVKGRFTISRDNAESTLYLQMDSLRSEDTATYYCTAANYGGSYFDYWGQGVMVTVSS
VL: DVQMTQSPSNLAASPGESVSINCKASKSISKYLAWYQQKPGKANKLLIYSGSTLQSGTPSRFSGSGSGTDFTLTIRNLEPEDFGLYYCQQHNEYPPTFGAGTKLELK
notes: Human IgG4p (PRO mutation) constant region; also called cF44 IgG4p type

Key:
SIRPA_V1_IgV = molecular target: T1, SIRPA_V1_IgV (human, UniProt P78324 31-149); assay: SPR Biacore T200, antibody captured on anti-human IgG (Fc), SIRPA_V1_IgV as analyte (0.25 to 16 nM), 1:1 model
T1 construct: Secreted recombinant protein from FreeStyle 293F cells
Experimental: The dissociation constants were measured by a capture method comprising capturing each antibody as a ligand to an Anti-Human IgG (Fc) antibody immobilized using Human Antibody Capture Kit (GE Healthcare Bioscience Corp.) and measuring an antigen as an analyte, using Biacore T200 (GE Healthcare Bioscience Corp.). HBS-EP+ (GE Healthcare Bioscience Corp.) was used as a running buffer, and CM5 (GE Healthcare Bioscience Corp.) was used as a sensor chip. Onto the chip, 2 μg/mL of various antibodies were added at 10 μL/min for 30 seconds, then a serially diluted solution (0.25 to 16 nM) of the human SIRPA protein as an antigen was added at a flow rate of 30 μL/min for 120 seconds, and subsequently the dissociation phase for 600 seconds was monitored. As a regenerant, 3 M magnesium chloride (GE Healthcare Bioscience Corp.) was added at a flow rate of 20 μL/min for 30 seconds. For data analysis, a binding rate constant (ka), a dissociation rate constant (kd), and a dissociation constant (KD; KD=kd/ka) were calculated using a 1:1 binding model.

human SIRPA_V1 protein [1] = molecular target: T2, human SIRPA_V1 protein (human, UniProt P78324 31-504); assay: blocking cell-based ELISA: peroxidase-labeled CD47-Fc (1 µg/mL) on 293α cells expressing SIRPA_V1
T2 construct: Expressed on 293α cells from pcDNA3.2 V5-DEST or pFLAG V5-DEST (FLAG-tagged) vectors; also called human SIRPA Variant 1; hSIRPA V1
Experimental: After the culture supernatant of the human SIRPA_V1 or V2 expression vector-introduced 293 cells prepared in Example 9)-1 was removed, 50 μL per well of various anti-SIRPA antibodies or various control Human IgG diluted with 5% FBS-containing PBS to a final concentration of 0 to 10,000 ng/ml was added to each of pcDNA3.2 V5-DEST-SIRPA_V1 or V2-introduced 293α cells, immediately followed by addition of 50 µL per well of peroxidase-labeled CD47-Fc prepared with 5% FBS-containing PBS at 1 μg/mL, and the mixture was allowed to stand at 4° C. for one hour. Thereafter, the SIRPA-CD47 binding inhibitory activity was evaluated in the same manner as in 1)-6-3.

human SIRPB = molecular target: T3, human SIRPB (human, UniProt O00241 30-398); assay: flow cytometry on CHO-K1 cells expressing FLAG-tagged human SIRPB; PE anti-human IgG; MFI standardized to secondary antibody alone
T3 construct: whole, on cells; FLAG-tagged (pFLAG V5-DEST), on CHO-K1 cells; also called SIRPβ1; signal regulatory protein β1
Experimental: SIRPβ1 (signal regulatory protein β1: the amino acid sequence thereof is published as RefSeq accession number NP_006056) and SIRPγ (signal regulatory protein γ: the amino acid sequence thereof is published as RefSeq accession number NP_061026) are molecules belonging to the SIRPA family. In the present invention, “SIRPα” may be referred to as “SIRPA,” “SIRPβ1” may be referred to as […] and “SIRPγ” may be referred to as “SIRPG.” CHO-K1 cells were prepared in a 10% FBS-containing Ham's F-12K medium at 3.3×10⁵ cells/mL and cultured overnight at 37° C. under a 5% CO₂ condition. pFLAG V5-DEST-human SIRPβ, pFLAG V5-DEST-human SIRPG, or pFLAG V5-DEST was introduced into the cells using Lipofectamine LTX (Invitrogen), and cells were cultured in a 10% FBS-containing Ham's F-12K medium at 37° C. under a 5% CO₂ condition for 24 hours. The obtained introduced cells were collected and seeded on a 96-well plate. After the culture supernatant was removed, 100 μL per well of various anti-human SIRPA antibodies or various control human IgG was added to each of various gene introduced cells at a final concentration of 0 to 10,000 ng/mL, and the mixture was allowed to stand at 4° C. for 25 minutes. After the mixture was centrifuged, the supernatant was removed, and cells were washed twice with 5% FBS-containing PBS. After the mixture was centrifuged, the supernatant was removed, 50 μL per well of a 1/400 diluted solution of PE Mouse anti-Human IgG antibody (BioLegend) was added, and the mixture was allowed to stand at 4° C. for 25 minutes. After the mixture was centrifuged, the supernatant was removed, and cells were washed twice with 5% FBS-containing PBS.
After the mixture was centrifuged, and the supernatant was removed, cells were suspended in 100 μL per well of 1× BD Stabilizing Fixative (Becton Dickinson), and the cell count was measured by flow cytometry (FACS Canto II: Becton Dickinson). For data analysis, FlowJo (TreeStar) was used. Cells were characterized by detecting forward scattered (FSC) light and side-scattered (SSC) light, and then the mean fluorescence intensity of PE was calculated. Binding of various antibodies to the family molecules was calculated by standardizing the fluorescence intensity using the mean fluorescence intensity of a sample in which the secondary antibody alone was allowed to react.

human SIRPA_V1 protein [2] = molecular target: T2, human SIRPA_V1 protein; assay: cell-based ELISA on 293α cells expressing FLAG-tagged SIRPA_V1; Abs 490 normalized to FLAG tag
Experimental: (§1) The 293α cells [described in Example 1)-6] were prepared in a 10% FBS-containing DMEM medium to 5×10⁵ cells/mL. pFLAG V5-DEST-SIRPA_V1, pFLAG V5-DEST-SIRPA_V2, or pFLAG V5-DEST was introduced into the cells using Lipofectamine LTX (Invitrogen), followed by addition of 100 μL per well to a 96-well plate (Corning Incorporated), and cells were cultured overnight in the 10% FBS-containing DMEM medium at 37° C. under a 5% CO₂ condition. The obtained introduced cells were used for cell-based ELISA in a state that they adhered to each other. After the culture supernatant was removed, 50 μL per well of the cD13 (IgG2 and IgG4pf), cF44 (IgG1, IgG2, IgG4p, and IgG4pf), and cF63 (IgG2 and IgG4pf) antibodies prepared in Examples 3 and 4 were added to each of pFLAG V5-DEST-SIRPA_V1, pFLAG V5-DEST-SIRPA_V2, or pFLAG V5-DEST-introduced cells at final concentrations of 0 to 10,000 ng/mL, and the mixture was allowed to stand at 4° C. for one hour. Further, 50 μL per well of anti-FLAG M2 antibody (SIGMA) diluted with 5% FBS-containing PBS to a final concentration of 10,000 ng/mL was added to a well for detecting expression of each SIRPA construct, and the mixture was allowed to stand at 4° C. for one hour. The cells in the well were washed once with 5% FBS-containing PBS, followed by addition of Peroxidase AffiniPure F(ab′)₂ Fragment Goat Anti-Human IgG, Fcγ Fragment Specific (Jackson ImmunoResearch) diluted 1000-fold with 5% FBS-containing PBS, and the mixture was allowed to stand at 4° C. for one hour. The cells in the well were washed five times with 5% FBS-containing PBS, followed by addition of 100 μL per well of an OPD coloration solution [o-phenylenediamine dihydrochloride (Wako Pure Chemical Industries, Ltd.) and H₂O₂ were dissolved in an OPD solution (0.05 M trisodium citrate, 0.1 M disodium hydrogen phosphate dodecahydrate, pH 4.5) at 0.4 mg/mL and 0.6% (v/v), respectively]. A coloration reaction was performed with stirring occasionally, 100 μL per well of 1 M HCl was added to terminate the coloration reaction, and then absorbance at 490 nm was measured with a plate reader ARVO (PerkinElmer Inc.). Binding of the human chimeric anti-human SIRPA antibodies to each construct was standardized by expression of the FLAG tag.

human SIRPA_V2 protein [3] = molecular target: T4, human SIRPA_V2 protein (human, UniProt P78324 31-504); assay: cell-based ELISA on 293α cells expressing FLAG-tagged SIRPA_V2; Abs 490 normalized to FLAG tag
T4 construct: Expressed on 293α cells from pcDNA3.2 V5-DEST or pFLAG V5-DEST (FLAG-tagged) vectors; also called human SIRPA Variant 2; ECD variant (full-length, amino acids 1 to 504)
Experimental: as §1

human SIRPA_V1 protein [4] = molecular target: T2, human SIRPA_V1 protein; assay: blocking cell-based ELISA: peroxidase-labeled CD47-Fc (10,000 ng/mL) on 293α cells expressing SIRPA_V1; y axis = CD47-Fc signal in % of no antibody [i]
Experimental: After the culture supernatant of the human SIRPA and monkey SIRPA expression vector-introduced 293α cells prepared in Examples 5)-1 and 5)-2, respectively, was removed, 50 μL per well of cD13 (IgG2 and IgG4pf), cF44 (four different constant regions IgG1, IgG2, IgG4p, and IgG4pf), and cF63 (IgG2 and IgG4pf) diluted with 5% FBS-containing PBS to final concentrations of 0 to 10,000 ng/mL were added to each of pcDNA3.2 V5-DEST-SIRPA_V1, pcDNA3.2 V5-DEST-monkey SIRPA, and pcDNA3.2 V5-DEST-introduced 293α cells, immediately followed by addition of 50 μL per well of peroxidase-labeled CD47-Fc prepared in 5% FBS-containing PBS at a final concentration of 10,000 ng/ml, and the mixture was allowed to stand at 4° C. for one hour. Thereafter, the SIRPA-CD47 binding inhibitory activity was evaluated in the same manner as in 1)-6-3.

human SIRPA_V2 protein [5] = molecular target: T4, human SIRPA_V2 protein; assay: blocking cell-based ELISA: peroxidase-labeled CD47-Fc (10,000 ng/mL) on 293α cells expressing SIRPA_V2; y axis = CD47-Fc signal in % of no antibody [ii]

T4 sequence (P78324 other isoform, or with tags, fused parts or gaps limits assumed): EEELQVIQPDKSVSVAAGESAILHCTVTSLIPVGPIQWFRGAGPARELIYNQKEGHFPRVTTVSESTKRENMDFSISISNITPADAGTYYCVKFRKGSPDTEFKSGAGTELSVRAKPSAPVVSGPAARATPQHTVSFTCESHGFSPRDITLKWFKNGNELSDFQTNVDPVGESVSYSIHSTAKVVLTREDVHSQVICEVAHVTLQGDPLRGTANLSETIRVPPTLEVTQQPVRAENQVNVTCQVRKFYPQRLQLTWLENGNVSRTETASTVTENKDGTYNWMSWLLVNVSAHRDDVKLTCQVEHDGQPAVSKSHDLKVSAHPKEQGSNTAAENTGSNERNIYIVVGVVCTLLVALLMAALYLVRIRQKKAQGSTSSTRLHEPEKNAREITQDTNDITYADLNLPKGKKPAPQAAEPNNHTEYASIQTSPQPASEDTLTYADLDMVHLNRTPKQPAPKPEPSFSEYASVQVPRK
T2 sequence (P78324 31-504 limits assumed): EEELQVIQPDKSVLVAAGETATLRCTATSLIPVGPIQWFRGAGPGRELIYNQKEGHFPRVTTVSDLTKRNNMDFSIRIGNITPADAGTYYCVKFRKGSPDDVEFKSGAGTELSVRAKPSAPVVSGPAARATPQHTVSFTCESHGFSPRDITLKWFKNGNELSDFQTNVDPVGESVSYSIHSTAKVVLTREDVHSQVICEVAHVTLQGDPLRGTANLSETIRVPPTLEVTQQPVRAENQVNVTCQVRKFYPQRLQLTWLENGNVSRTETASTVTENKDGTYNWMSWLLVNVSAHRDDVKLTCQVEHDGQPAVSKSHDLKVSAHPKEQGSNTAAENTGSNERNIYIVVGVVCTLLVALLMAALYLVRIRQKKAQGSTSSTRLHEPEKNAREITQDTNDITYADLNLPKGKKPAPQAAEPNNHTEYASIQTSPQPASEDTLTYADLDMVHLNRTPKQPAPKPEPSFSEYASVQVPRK
T3 sequence (O00241 30-398): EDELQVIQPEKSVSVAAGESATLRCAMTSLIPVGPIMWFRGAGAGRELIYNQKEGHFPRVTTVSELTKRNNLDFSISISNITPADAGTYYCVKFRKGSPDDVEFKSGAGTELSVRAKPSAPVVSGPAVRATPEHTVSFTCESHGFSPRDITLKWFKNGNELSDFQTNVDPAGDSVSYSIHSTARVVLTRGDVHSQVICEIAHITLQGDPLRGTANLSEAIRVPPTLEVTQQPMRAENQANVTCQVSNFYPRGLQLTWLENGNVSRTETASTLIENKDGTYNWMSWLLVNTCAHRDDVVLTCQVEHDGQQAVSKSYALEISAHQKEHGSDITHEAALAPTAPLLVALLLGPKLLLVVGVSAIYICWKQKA
T1 sequence (P78324 other isoform, or with tags, fused parts or gaps limits assumed): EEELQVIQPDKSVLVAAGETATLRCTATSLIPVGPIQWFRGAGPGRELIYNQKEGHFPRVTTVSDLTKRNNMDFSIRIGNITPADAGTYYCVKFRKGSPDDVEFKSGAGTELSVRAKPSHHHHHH

Binder	Kd (SIRPA_V1_IgV) [nM]	IC50 (human SIRPA_V1 protein [1]) [µg/mL]	EC50 (read off the curve) (human SIRPB) [µg/mL]	EC50 (read off the curve) (human SIRPA_V1 protein [2]) [µg/mL]	EC50 (read off the curve) (human SIRPA_V2 protein [3]) [µg/mL]	IC50 (read off the curve) (human SIRPA_V1 protein [4]) [µg/mL]	IC50 (read off the curve) (human SIRPA_V2 protein [5]) [µg/mL]
B1	11.7	2.32	~0.04	–	–	–	–
B2	–	–	–	~0.04	~0.04	~0.4	~0.4
B3	–	–	–	~0.04	~0.04	~0.4	~0.3
B4	–	–	–	~0.05	~0.05	~0.5	~0.4
